# Data taken from the Human Domainome abundance scans (Beltran et al. 2025).
# ± gives the uncertainty stated by the source.
# B1: Receptor-interacting serine/threonine-protein kinase 2, residues 438 to 518; numbered along this chain, O43353 (parent)
# chain: QWIQSKREDIVNQMTEACLNQSLDALLSRDLIMKEDYELVSTKPTRTSKVRQLLDTTDIQGEEFAKVIVQKLKDNKQMGLQ
# Variants of: B1
# Assay: abundance fitness (aPCA) (normalised: wild type 0, dead -1); higher = more abundant; growth selection in yeast, the domain comes from the species named
# Settings: Homo sapiens
row,Variant,abundance fitness
1,QWIQSKREDIVNQMTEACGNQSLDALLSRDLIMKEDYELVSTKPTRTSKVRQLLDTTDIQGEEFAKVIVQKLKDNKQMGLQ [L19G],-0.502 ± 0.088
2,QWIQSKREDIVNQMTEACQNQSLDALLSRDLIMKEDYELVSTKPTRTSKVRQLLDTTDIQGEEFAKVIVQKLKDNKQMGLQ [L19Q],-0.351 ± 0.14
3,QWIQSKREDIVNQMTEACTNQSLDALLSRDLIMKEDYELVSTKPTRTSKVRQLLDTTDIQGEEFAKVIVQKLKDNKQMGLQ [L19T],-0.112 ± 0.3
4,QWIQSKREDIVNQMTEACPNQSLDALLSRDLIMKEDYELVSTKPTRTSKVRQLLDTTDIQGEEFAKVIVQKLKDNKQMGLQ [L19P],-0.3 ± 0.16
5,QWIQSKREDIVNQMTEACSNQSLDALLSRDLIMKEDYELVSTKPTRTSKVRQLLDTTDIQGEEFAKVIVQKLKDNKQMGLQ [L19S],-0.792 ± 0.16
6,QWIQSKREDIVNQMTEACWNQSLDALLSRDLIMKEDYELVSTKPTRTSKVRQLLDTTDIQGEEFAKVIVQKLKDNKQMGLQ [L19W],-1 ± 0.39
7,QWIQSKREDIVNQMTEACANQSLDALLSRDLIMKEDYELVSTKPTRTSKVRQLLDTTDIQGEEFAKVIVQKLKDNKQMGLQ [L19A],-0.447 ± 0.1
8,QWIQSKREDIVNQMTEACMNQSLDALLSRDLIMKEDYELVSTKPTRTSKVRQLLDTTDIQGEEFAKVIVQKLKDNKQMGLQ [L19M],-0.306 ± 0.12
9,QWIQSKREDIVNQMTEACFNQSLDALLSRDLIMKEDYELVSTKPTRTSKVRQLLDTTDIQGEEFAKVIVQKLKDNKQMGLQ [L19F],-0.833 ± 0.27
10,QWIQSKREDIVNQMTEACVNQSLDALLSRDLIMKEDYELVSTKPTRTSKVRQLLDTTDIQGEEFAKVIVQKLKDNKQMGLQ [L19V],-0.25 ± 0.097
11,QWIQSKREDIVNQMTEACKNQSLDALLSRDLIMKEDYELVSTKPTRTSKVRQLLDTTDIQGEEFAKVIVQKLKDNKQMGLQ [L19K],-0.884 ± 0.34
12,QWIQSKREDIVNQMTEACYNQSLDALLSRDLIMKEDYELVSTKPTRTSKVRQLLDTTDIQGEEFAKVIVQKLKDNKQMGLQ [L19Y],-0.607 ± 0.24
13,QWIQSKREDIVNQMTEACNNQSLDALLSRDLIMKEDYELVSTKPTRTSKVRQLLDTTDIQGEEFAKVIVQKLKDNKQMGLQ [L19N],-0.454 ± 0.34
14,QWIQSKREDIVNQMTEACINQSLDALLSRDLIMKEDYELVSTKPTRTSKVRQLLDTTDIQGEEFAKVIVQKLKDNKQMGLQ [L19I],0.024 ± 0.18
15,QWIQSKREDIVNQMTEAQLNQSLDALLSRDLIMKEDYELVSTKPTRTSKVRQLLDTTDIQGEEFAKVIVQKLKDNKQMGLQ [C18Q],-0.316 ± 0.11
16,QWIQSKREDIVNQMTEANLNQSLDALLSRDLIMKEDYELVSTKPTRTSKVRQLLDTTDIQGEEFAKVIVQKLKDNKQMGLQ [C18N],-0.288 ± 0.16
17,QWIQSKREDIVNQMTEAFLNQSLDALLSRDLIMKEDYELVSTKPTRTSKVRQLLDTTDIQGEEFAKVIVQKLKDNKQMGLQ [C18F],-0.375 ± 0.19
18,QWIQSKREDIVNQMTEASLNQSLDALLSRDLIMKEDYELVSTKPTRTSKVRQLLDTTDIQGEEFAKVIVQKLKDNKQMGLQ [C18S],-0.24 ± 0.061
19,QWIQSKREDIVNQMTEAGLNQSLDALLSRDLIMKEDYELVSTKPTRTSKVRQLLDTTDIQGEEFAKVIVQKLKDNKQMGLQ [C18G],-0.425 ± 0.062
20,QWIQSKREDIVNQMTEAELNQSLDALLSRDLIMKEDYELVSTKPTRTSKVRQLLDTTDIQGEEFAKVIVQKLKDNKQMGLQ [C18E],0.062 ± 0.095
21,QWIQSKREDIVNQMTEAMLNQSLDALLSRDLIMKEDYELVSTKPTRTSKVRQLLDTTDIQGEEFAKVIVQKLKDNKQMGLQ [C18M],-0.264 ± 0.23
22,QWIQSKREDIVNQMTEADLNQSLDALLSRDLIMKEDYELVSTKPTRTSKVRQLLDTTDIQGEEFAKVIVQKLKDNKQMGLQ [C18D],-0.796 ± 0.25
23,QWIQSKREDIVNQMTEALLNQSLDALLSRDLIMKEDYELVSTKPTRTSKVRQLLDTTDIQGEEFAKVIVQKLKDNKQMGLQ [C18L],-0.519 ± 0.072

row,Variant,abundance fitness
1,QWIQSKREDIVNQMTEAVLNQSLDALLSRDLIMKEDYELVSTKPTRTSKVRQLLDTTDIQGEEFAKVIVQKLKDNKQMGLQ [C18V],-0.004 ± 0.079
2,QWIQSKREDIVNQMTEARLNQSLDALLSRDLIMKEDYELVSTKPTRTSKVRQLLDTTDIQGEEFAKVIVQKLKDNKQMGLQ [C18R],-0.559 ± 0.071
3,QWIQSKREDIVNQMTEAYLNQSLDALLSRDLIMKEDYELVSTKPTRTSKVRQLLDTTDIQGEEFAKVIVQKLKDNKQMGLQ [C18Y],-0.795 ± 0.22
4,QWIQSKREDIVNQMTEAPLNQSLDALLSRDLIMKEDYELVSTKPTRTSKVRQLLDTTDIQGEEFAKVIVQKLKDNKQMGLQ [C18P],-0.299 ± 0.074
5,QWIQSKREDIVNQMTEATLNQSLDALLSRDLIMKEDYELVSTKPTRTSKVRQLLDTTDIQGEEFAKVIVQKLKDNKQMGLQ [C18T],0.158 ± 0.084
6,QWIQSKREDIVNQMTEAALNQSLDALLSRDLIMKEDYELVSTKPTRTSKVRQLLDTTDIQGEEFAKVIVQKLKDNKQMGLQ [C18A],-0.151 ± 0.067
7,QWIQSKREDIVNQMTEAHLNQSLDALLSRDLIMKEDYELVSTKPTRTSKVRQLLDTTDIQGEEFAKVIVQKLKDNKQMGLQ [C18H],-0.747 ± 0.2
8,QWIQSKREDIVNQMTEAILNQSLDALLSRDLIMKEDYELVSTKPTRTSKVRQLLDTTDIQGEEFAKVIVQKLKDNKQMGLQ [C18I],-0.384 ± 0.12
9,QWIQSKREDIVNQMTECCLNQSLDALLSRDLIMKEDYELVSTKPTRTSKVRQLLDTTDIQGEEFAKVIVQKLKDNKQMGLQ [A17C],-0.107 ± 0.074
10,QWIQSKREDIVNQMTETCLNQSLDALLSRDLIMKEDYELVSTKPTRTSKVRQLLDTTDIQGEEFAKVIVQKLKDNKQMGLQ [A17T],0.131 ± 0.083
11,QWIQSKREDIVNQMTEGCLNQSLDALLSRDLIMKEDYELVSTKPTRTSKVRQLLDTTDIQGEEFAKVIVQKLKDNKQMGLQ [A17G],-0.175 ± 0.055
12,QWIQSKREDIVNQMTEMCLNQSLDALLSRDLIMKEDYELVSTKPTRTSKVRQLLDTTDIQGEEFAKVIVQKLKDNKQMGLQ [A17M],-0.25 ± 0.16
13,QWIQSKREDIVNQMTEVCLNQSLDALLSRDLIMKEDYELVSTKPTRTSKVRQLLDTTDIQGEEFAKVIVQKLKDNKQMGLQ [A17V],0.004 ± 0.067
14,QWIQSKREDIVNQMTEKCLNQSLDALLSRDLIMKEDYELVSTKPTRTSKVRQLLDTTDIQGEEFAKVIVQKLKDNKQMGLQ [A17K],-0.072 ± 0.2
15,QWIQSKREDIVNQMTESCLNQSLDALLSRDLIMKEDYELVSTKPTRTSKVRQLLDTTDIQGEEFAKVIVQKLKDNKQMGLQ [A17S],-0.117 ± 0.056
16,QWIQSKREDIVNQMTEDCLNQSLDALLSRDLIMKEDYELVSTKPTRTSKVRQLLDTTDIQGEEFAKVIVQKLKDNKQMGLQ [A17D],0.042 ± 0.11
17,QWIQSKREDIVNQMTEWCLNQSLDALLSRDLIMKEDYELVSTKPTRTSKVRQLLDTTDIQGEEFAKVIVQKLKDNKQMGLQ [A17W],-0.485 ± 0.1
18,QWIQSKREDIVNQMTEHCLNQSLDALLSRDLIMKEDYELVSTKPTRTSKVRQLLDTTDIQGEEFAKVIVQKLKDNKQMGLQ [A17H],-0.043 ± 0.11
19,QWIQSKREDIVNQMTEFCLNQSLDALLSRDLIMKEDYELVSTKPTRTSKVRQLLDTTDIQGEEFAKVIVQKLKDNKQMGLQ [A17F],-0.839 ± 0.16
20,QWIQSKREDIVNQMTEYCLNQSLDALLSRDLIMKEDYELVSTKPTRTSKVRQLLDTTDIQGEEFAKVIVQKLKDNKQMGLQ [A17Y],-0.137 ± 0.12
21,QWIQSKREDIVNQMTEPCLNQSLDALLSRDLIMKEDYELVSTKPTRTSKVRQLLDTTDIQGEEFAKVIVQKLKDNKQMGLQ [A17P],-0.33 ± 0.057
22,QWIQSKREDIVNQMTEICLNQSLDALLSRDLIMKEDYELVSTKPTRTSKVRQLLDTTDIQGEEFAKVIVQKLKDNKQMGLQ [A17I],-0.569 ± 0.21
23,QWIQSKREDIVNQMTEQCLNQSLDALLSRDLIMKEDYELVSTKPTRTSKVRQLLDTTDIQGEEFAKVIVQKLKDNKQMGLQ [A17Q],0.076 ± 0.088

row,Variant,abundance fitness
1,QWIQSKREDIVNQMTELCLNQSLDALLSRDLIMKEDYELVSTKPTRTSKVRQLLDTTDIQGEEFAKVIVQKLKDNKQMGLQ [A17L],-0.186 ± 0.068
2,QWIQSKREDIVNQMTEECLNQSLDALLSRDLIMKEDYELVSTKPTRTSKVRQLLDTTDIQGEEFAKVIVQKLKDNKQMGLQ [A17E],0.182 ± 0.11
3,QWIQSKREDIVNQMTENCLNQSLDALLSRDLIMKEDYELVSTKPTRTSKVRQLLDTTDIQGEEFAKVIVQKLKDNKQMGLQ [A17N],-0.166 ± 0.17
4,QWIQSKREDIVNQMVEACLNQSLDALLSRDLIMKEDYELVSTKPTRTSKVRQLLDTTDIQGEEFAKVIVQKLKDNKQMGLQ [T15V],-0.777 ± 0.11
5,QWIQSKREDIVNQMSEACLNQSLDALLSRDLIMKEDYELVSTKPTRTSKVRQLLDTTDIQGEEFAKVIVQKLKDNKQMGLQ [T15S],0.158 ± 0.042
6,QWIQSKREDIVNQMREACLNQSLDALLSRDLIMKEDYELVSTKPTRTSKVRQLLDTTDIQGEEFAKVIVQKLKDNKQMGLQ [T15R],-0.937 ± 0.11
7,QWIQSKREDIVNQMYEACLNQSLDALLSRDLIMKEDYELVSTKPTRTSKVRQLLDTTDIQGEEFAKVIVQKLKDNKQMGLQ [T15Y],-0.946 ± 0.31
8,QWIQSKREDIVNQMWEACLNQSLDALLSRDLIMKEDYELVSTKPTRTSKVRQLLDTTDIQGEEFAKVIVQKLKDNKQMGLQ [T15W],-1.05 ± 0.21
9,QWIQSKREDIVNQMTSACLNQSLDALLSRDLIMKEDYELVSTKPTRTSKVRQLLDTTDIQGEEFAKVIVQKLKDNKQMGLQ [E16S],-0.272 ± 0.061
10,QWIQSKREDIVNQMTLACLNQSLDALLSRDLIMKEDYELVSTKPTRTSKVRQLLDTTDIQGEEFAKVIVQKLKDNKQMGLQ [E16L],-0.288 ± 0.072
11,QWIQSKREDIVNQMTMACLNQSLDALLSRDLIMKEDYELVSTKPTRTSKVRQLLDTTDIQGEEFAKVIVQKLKDNKQMGLQ [E16M],-0.186 ± 0.19
12,QWIQSKREDIVNQMTIACLNQSLDALLSRDLIMKEDYELVSTKPTRTSKVRQLLDTTDIQGEEFAKVIVQKLKDNKQMGLQ [E16I],-0.319 ± 0.11
13,QWIQSKREDIVNQMTVACLNQSLDALLSRDLIMKEDYELVSTKPTRTSKVRQLLDTTDIQGEEFAKVIVQKLKDNKQMGLQ [E16V],-0.289 ± 0.067
14,QWIQSKREDIVNQMTDACLNQSLDALLSRDLIMKEDYELVSTKPTRTSKVRQLLDTTDIQGEEFAKVIVQKLKDNKQMGLQ [E16D],0.014 ± 0.11
15,QWIQSKREDIVNQMTTACLNQSLDALLSRDLIMKEDYELVSTKPTRTSKVRQLLDTTDIQGEEFAKVIVQKLKDNKQMGLQ [E16T],-0.193 ± 0.079
16,QWIQSKREDIVNQMTPACLNQSLDALLSRDLIMKEDYELVSTKPTRTSKVRQLLDTTDIQGEEFAKVIVQKLKDNKQMGLQ [E16P],-0.539 ± 0.078
17,QWIQSKREDIVNQMTKACLNQSLDALLSRDLIMKEDYELVSTKPTRTSKVRQLLDTTDIQGEEFAKVIVQKLKDNKQMGLQ [E16K],-0.537 ± 0.14
18,QWIQSKREDIVNQMTQACLNQSLDALLSRDLIMKEDYELVSTKPTRTSKVRQLLDTTDIQGEEFAKVIVQKLKDNKQMGLQ [E16Q],-0.546 ± 0.12
19,QWIQSKREDIVNQMTYACLNQSLDALLSRDLIMKEDYELVSTKPTRTSKVRQLLDTTDIQGEEFAKVIVQKLKDNKQMGLQ [E16Y],-0.576 ± 0.15
20,QWIQSKREDIVNQMTGACLNQSLDALLSRDLIMKEDYELVSTKPTRTSKVRQLLDTTDIQGEEFAKVIVQKLKDNKQMGLQ [E16G],-0.858 ± 0.098
21,QWIQSKREDIVNQMTRACLNQSLDALLSRDLIMKEDYELVSTKPTRTSKVRQLLDTTDIQGEEFAKVIVQKLKDNKQMGLQ [E16R],-0.793 ± 0.082
22,QWIQSKREDIVNQMTCACLNQSLDALLSRDLIMKEDYELVSTKPTRTSKVRQLLDTTDIQGEEFAKVIVQKLKDNKQMGLQ [E16C],-0.853 ± 0.23
